Assays:
HeLa Kyoto [1] = experiment: thermal stability score vs G1/S (z-score of summed log2 fold changes over temperatures); higher = more thermally stable than in G1/S
HeLa Kyoto [2] = experiment: solubility change mitosis vs G1/S (difference of NP-40 vs SDS log2 ratios) (log2 ratio difference); higher = more soluble in mitosis
HeLa Kyoto [3] = experiment: melting temperature (median over replicates), in situ; higher = more thermally stable
HeLa Kyoto [4] = experiment: solubility in G1/S (NP-40 vs SDS abundance) (log2 ratio); higher = more soluble; settings: cell cycle stage: G1/S
[5] = cell cycle stage: early G1 (4.5 h after nocodazole release)
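Wherever melting temperature (median over replicates), in situ is given: HeLa Kyoto cells synchronized by double thymidine or nocodazole block, proteins quantified by TMT10plex mass spectrometry, three independent biological replicates.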
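Wherever solubility change mitosis vs G1/S (difference of NP-40 vs SDS log2 ratios) is given: synchronized HeLa Kyoto cells (double thymidine block for G1/S, nocodazole release for mitosis), protein amounts in NP-40 versus SDS lysates quantified by mass spectrometry, three biological replicates.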
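Wherever solubility in G1/S (NP-40 vs SDS abundance) is given: HeLa Kyoto cells arrested at G1/S by double thymidine block, proteins quantified by TMT10plex mass spectrometry in mild NP-40 versus SDS extracts, three biological replicates.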
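Wherever thermal stability score vs G1/S (z-score of summed log2 fold changes over temperatures) is given: synchronized HeLa Kyoto cells, proteins quantified by TMT10plex mass spectrometry, three biological replicates, mitosis taken 0.5 h after nocodazole release, G1/S directly after double thymidine block.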

Row | Sequence | thermal stability score (HeLa Kyoto [1]; [5]) | thermal stability score (HeLa Kyoto [1]; cell cycle stage: mitosis) | solubility change mitosis (log2) (HeLa Kyoto [2]) | melting temperature (HeLa Kyoto [3]; cell cycle stage: G1/S) | melting temperature (HeLa Kyoto [3]; cell cycle stage: mitosis) | solubility in G1/S (log2) (HeLa Kyoto [4])
1 | MSPTQWDFPVELCCRPMAFVTLTGLDVVYNAVHRAVWDAFCANRRADRVPISFKVLPGDHEYPKCRPKRTSYEWYIPKGILKTGWMNKHLNLVPALVVVFYELDWDEPQWKEKQSECATRVEIVRQSLQGRNTKVAVVLIQKKTPLPPGEDVIASERAAALCNACELSGKSLFVLPHTDHLVGYIIRLENAFYEHAQTYYYTEIRRVKSHKEFLNKTTHQLLFVRHQFKIAFFSELKQDTQNALKNYRTAYNLVHELRAHETNILEIKTMAGFINYKICRLCFQHNTPLDAIAQFRKHIDLCKKKIGSAELSFEHDAWMSKQFQAFGDLFDEAIKLGLTAIQTQNPGFYYQQAAYYAQERKQLAKTLCNHEASVMYPNPDPLETQTGVLDFYGQRSWRQGILSFDLSDPEKEKVGILAIQLKERNVVHSEIIITLLSNAVAQFKKYKCPRMKSHLMVQMGEEYYYAKDYTKALKLLDYVMCDYRSEGWWTLLTSVLTTALKCSYLMAQLKDYITYSLELLGRASTLKDDQKSRIEKNLINVLMNESPDPEPDCDILAVKTAQKLWADRISLAGSNIFTIGVQDFVPFVQCKAKFHAPSFHVDVPVQFDIYLKADCPHPIRFSKLCVSFNNQEYNQFCVIEEASKANEVLENLTQGKMCLVPGKTRKLLFKFVAKTEDVGKKIEITSVDLALGNETGRCVVLNWQGGGGDAASSQEALQAARSFKRRPKLPDNEVHWDSIIIQASTMIISRVPNISVHLLHEPPALTNEMYCLVVTVQSHEKTQIRDVKLTAGLKPGQDANLTQKTHVTLHGTELCDESYPALLTDIPVGDLHPGEQLEKMLYVRCGTVGSRMFLVYVSYLINTTVEEKEIVCKCHKDETVTIETVFPFDVAVKFVSTKFEHLERVYADIPFLLMTDLLSASPWALTIVSSELQLAPSMTTVDQLESQVDNVILQTGESASECFCLQCPSLGNIEGGVATGHYIISWKRTSAMENIPIITTVITLPHVIVENIPLHVNADLPSFGRVRESLPVKYHLQNKTDLVQDVEISVEPSDAFMFSGLKQIRLRILPGTEQEMLYNFYPLMAGYQQLPSLNINLLRFPNFTNQLLRRFIPTSIFVKPQGRLMDDTSIAAA [TRAPPC11] | 0.0283 | -0.012 | -0.216 | 50.7 °C | 50.3 °C | -0.13
2 | MSPVLHFYVRPSGHEGAAPGHTRRKLQGKLPELQGVETELCYNVNWTAEALPSAEETKKLMWLFGCPLLLDDVARESWLLPGSNDLLLEVGPRLNFSTPTSTNIVSVCRATGLGPVDRVETTRRYRLSFAHPPSAEVEAIALATLHDRMTEQHFPHPIQSFSPESMPEPLNGPINILGEGRLALEKANQELGLALDSWDLDFYTKRFQELQRNPSTVEAFDLAQSNSEHSRHWFFKGQLHVDGQKLVHSLFESIMSTQESSNPNNVLKFCDNSSAIQGKEVRFLRPEDPTRPSRFQQQQGLRHVVFTAETHNFPTGVCPFSGATTGTGGRIRDVQCTGRGAHVVAGTAGYCFGNLHIPGYNLPWEDPSFQYPGNFARPLEVAIEASNGASDYGNKFGEPVLAGFARSLGLQLPDGQRREWIKPIMFSGGIGSMEADHISKEAPEPGMEVVKVGGPVYRIGVGGGAASSVQVQGDNTSDLDFGAVQRGDPEMEQKMNRVIRACVEAPKGNPICSLHDQGAGGNGNVLKELSDPAGAIIYTSRFQLGDPTLNALEIWGAEYQESNALLLRSPNRDFLTHVSARERCPACFVGTITGDRRIVLVDDRECPVRRNGQGDAPPTPLPTPVDLELEWVLGKMPRKEFFLQRKPPMLQPLALPPGLSVHQALERVLRLPAVASKRYLTNKVDRSVGGLVAQQQCVGPLQTPLADVAVVALSHEELIGAATALGEQPVKSLLDPKVAARLAVAEALTNLVFALVTDLRDVKCSGNWMWAAKLPGEGAALADACEAMVAVMAALGVAVDGGKDSLSMAARVGTETVRAPGSLVISAYAVCPDITATVTPDLKHPEGRGHLLYVALSPGQHRLGGTALAQCFSQLGEHPPDLDLPENLVRAFSITQGLLKDRLLCSGHDVSDGGLVTCLLEMAFAGNCGLQVDVPVPRVDVLSVLFAEEPGLVLEVQEPDLAQVLKRYRDAGLHCLELGHTGEAGPHAMVRVSVNGAVVLEEPVGELRALWEETSFQLDRLQAEPRCVAEEERGLRERMGPSYCLPPTFPKASVPREPGGPSPRVAILREEGSNGDREMADAFHLAGFEVWDVTMQDLCSGAIGLDTFRGVAFVGGFSYADVLGSAKGWAAAVTFHPRAGAELRRFRKRPDTFSLGVCNGCQLLALLGWVGGDPNEDAAEMGPDSQPARPGLLLRHNLSGRYESRWASVRVGPGPALMLRGMEGAVLPVWSAHGEGYVAFSSPELQAQIEARGLAPLHWADDDGNPTEQYPLNPNGSPGGVAGICSCDGRHLAVMPHPERAVRPWQWAWRPPPFDTLTTSPWLQLFINARNWTLEGSC [PFAS] | -3.18 | -3.7 | -0.0731 | 51.9 °C | 51.5 °C | 0.146
3 | MSPWSWFLLQTLCLLPTGAASRRGAPGTANCELKPQQSELNSFLWTIKRDPPSYFFGTIHVPYTRVWDFIPDNSKEAFLQSSIVYFELDLTDPYTISALTSCQMLPQGENLQDVLPRDIYCRLKRHLEYVKLMMPLWMTPDQRGKGLYADYLFNAIAGNWERKRPVWVMLMVNSLTEVDIKSRGVPVLDLFLAQEAERLRKQTGAVEKVEEQCHPLNGLNFSQVIFALNQTLLQQESLRAGSLQIPYTTEDLIKHYNCGDLSSVILSHDSSQVPNFINATLPPQERITAQEIDSYLRRELIYKRNERIGKRVKALLEEFPDKGFFFAFGAGHFMGNNTVLDVLRREGYEVEHAPAGRPIHKGKSKKTSTRPTLSTIFAPKVPTLEVPAPEAVSSGHSTLPPLVSRPGSADTPSEAEQRFRKKRRRSQRRPRLRQFSDLWVRLEESDIVPQLQVPVLDRHISTELRLPRRGHSHHSQMVASSACLSLWTPVFWVLVLAFQTETPLL [TRABD2A] | 1.43 | 0.133 | -0.031 | 53.9 °C | 53.4 °C | 0.299
4 | MSQWYELQQLDSKFLEQVHQLYDDSFPMEIRQYLAQWLEKQDWEHAANDVSFATIRFHDLLSQLDDQYSRFSLENNFLLQHNIRKSKRNLQDNFQEDPIQMSMIIYSCLKEERKILENAQRFNQAQSGNIQSTVMLDKQKELDSKVRNVKDKVMCIEHEIKSLEDLQDEYDFKCKTLQNREHETNGVAKSDQKQEQLLLKKMYLMLDNKRKEVVHKIIELLNVTELTQNALINDELVEWKRRQQSACIGGPPNACLDQLQNWFTIVAESLQQVRQQLKKLEELEQKYTYEHDPITKNKQVLWDRTFSLFQQLIQSSFVVERQPCMPTHPQRPLVLKTGVQFTVKLRLLVKLQELNYNLKVKVLFDKDVNERNTVKGFRKFNILGTHTKVMNMEESTNGSLAAEFRHLQLKEQKNAGTRTNEGPLIVTEELHSLSFETQLCQPGLVIDLETTSLPVVVISNVSQLPSGWASILWYNMLVAEPRNLSFFLTPPCARWAQLSEVLSWQFSSVTKRGLNVDQLNMLGEKLLGPNASPDGLIPWTRFCKENINDKNFPFWLWIESILELIKKHLLPLWNDGCIMGFISKERERALLKDQQPGTFLLRFSESSREGAITFTWVERSQNGGEPDFHAVEPYTKKELSAVTFPDIIRNYKVMAAENIPENPLKYLYPNIDKDHAFGKYYSRPKEAPEPMELDGPKGTGYIKTELISVSEVHPSRLQTTDNLLPMSPEEFDEVSRIVGSVEFDSMMNTV [STAT1] | 1.15 | 3.11 | -0.17 | 47.7 °C | 48.5 °C | 0.104
5 | MSRARSHLRAALFLAAASARGITTQVAARRGLSAWPVPQEPSMEYQDAVRMLNTLQTNAGYLEQVKRQRGDPQTQLEAMELYLARSGLQVEDLDRLNIIHVTGTKGKGSTCAFTECILRSYGLKTGFFSSPHLVQVRERIRINGQPISPELFTKYFWRLYHRLEETKDGSCVSMPPYFRFLTLMAFHVFLQEKVDLAVVEVGIGGAYDCTNIIRKPVVCGVSSLGIDHTSLLGDTVEKIAWQKGGIFKQGVPAFTVLQPEGPLAVLRDRAQQISCPLYLCPMLEALEEGGPPLTLGLEGEHQRSNAALALQLAHCWLQRQDRHGAGEPKASRPGLLWQLPLAPVFQPTSHMRLGLRNTEWPGRTQVLRRGPLTWYLDGAHTASSAQACVRWFRQALQGRERPSGGPEVRVLLFNATGDRDPAALLKLLQPCQFDYAVFCPNLTEVSSTGNADQQNFTVTLDQVLLRCLEHQQHWNHLDEEQASPDLWSAPSPEPGGSASLLLAPHPPHTCSASSLVFSCISHALQWISQGRDPIFQPPSPPKGLLTHPVAHSGASILREAAAIHVLVTGSLHLVGGVLKLLEPALSQ [FPGS] | 0.537 | 1.93 | -0.165 | 49.7 °C | 48.1 °C | 0.114
6 | MSRGPEEVNRLTESTYRNVMEQFNPGLRNLINLGKNYEKAVNAMILAGKAYYDGVAKIGEIATGSPVSTELGHVLIEISSTHKKLNESLDENFKKFHKEIIHELEKKIELDVKYMNATLKRYQTEHKNKLESLEKSQAELKKIRRKSQGSRNALKYEHKEIEYVETVTSRQSEIQKFIADGCKEALLEEKRRFCFLVDKHCGFANHIHYYHLQSAELLNSKLPRWQETCVDAIKVPEKIMNMIEEIKTPASTPVSGTPQASPMIERSNVVRKDYDTLSKCSPKMPPAPSGRAYTSPLIDMFNNPATAAPNSQRVNNSTGTSEDPSLQRSVSVATGLNMMKKQKVKTIFPHTAGSNKTLLSFAQGDVITLLIPEEKDGWLYGEHDVSKARGWFPSSYTKLLEENETEAVTVPTPSPTPVRSISTVNLSENSSVVIPPPDYLECLSMGAAADRRADSARTTSTFKAPASKPETAAPNDANGTAKPPFLSGENPFATVKLRPTVTNDRSAPIIR [BAIAP2L1] | 1.74 | 1.36 | -0.0797 | 52.7 °C | 54.1 °C | 0.326
7 | MSRQNLVALTVTTLLGVAVGGFVLWKGIQRRRRSKTSPVTQQPQQKVLGSRELPPPEDDQLHSSAPRSSWKERILKAKVVTVSQEAEWDQIEPLLRSELEDFPVLGIDCEWVNLEGKASPLSLLQMASPSGLCVLVRLPKLICGGKTLPRTLLDILADGTILKVGVGCSEDASKLLQDYGLVVRGCLDLRYLAMRQRNNLLCNGLSLKSLAETVLNFPLDKSLLLRCSNWDAETLTEDQVIYAARDAQISVALFLHLLGYPFSRNSPGEKNDDHSSWRKVLEKCQGVVDIPFRSKGMSRLGEEVNGEATESQQKPRNKKSKMDGMVPGNHQGRDPRKHKRKPLGVGYSARKSPLYDNCFLHAPDGQPLCTCDRRKAQWYLDKGIGELVSEEPFVVKLRFEPAGRPESPGDYYLMVKENLCVVCGKRDSYIRKNVIPHEYRKHFPIEMKDHNSHDVLLLCTSCHAISNYYDNHLKQQLAKEFQAPIGSEEGLRLLEDPERRQVRSGARALLNAESLPTQRKEELLQALREFYNTDVVTEEMLQEAASLETRISNENYVPHGLKVVQCHSQGGLRSLMQLESRWRQHFLDSMQPKHLPQQWSVDHNHQKLLRKFGEDLPIQLS [EXD2] | 0.38 | 0.455 | -0.0547 | 49.7 °C | 49.6 °C | 0.113
8 | MSRRLLPRAEKRRRRLEQRQQPDEQRRRSGAMVKMAAAGGGGGGGRYYGGGSEGGRAPKRLKTDNAGDQHGGGGGGGGGAGAAGGGGGGENYDDPHKTPASPVVHIRGLIDGVVEADLVEALQEFGPISYVVVMPKKRQALVEFEDVLGACNAVNYAADNQIYIAGHPAFVNYSTSQKISRPGDSDDSRSVNSVLLFTILNPIYSITTDVLYTICNPCGPVQRIVIFRKNGVQAMVEFDSVQSAQRAKASLNGADIYSGCCTLKIEYAKPTRLNVFKNDQDTWDYTNPNLSGQGDPGSNPNKRQRQPPLLGDHPAEYGGPHGGYHSHYHDEGYGPPPPHYEGRRMGPPVGGHRRGPSRYGPQYGHPPPPPPPPEYGPHADSPVLMVYGLDQSKMNCDRVFNVFCLYGNVEKVKFMKSKPGAAMVEMADGYAVDRAITHLNNNFMFGQKLNVCVSKQPAIMPGQSYGLEDGSCSYKDFSESRNNRFSTPEQAAKNRIQHPSNVLHFFNAPLEVTEENFFEICDELGVKRPSSVKVFSGKSERSSSGLLEWESKSDALETLGFLNHYQMKNPNGPYPYTLKLCFSTAQHAS [HNRNPL] | 5.28 | 10.5 | 0.228 | 46.4 °C | 48.1 °C | -0.26
